Measured values from the supplement of paper PMC12764529.
± gives the half width of the 95% confidence interval.

Test: folding stability dG unfold from trypsin proteolysis; higher = more stable
Description: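 Folding stability of de novo designed mini-proteins (<80 aa, no Cys; designed by TrROS, TrMRF, ProteinMPNN and the joint model) was measured by cDNA display proteolysis with trypsin and chymotrypsin. Each protease was used at 11 concentrations in a threefold dilution series plus a no-protease condition. K50 was inferred by Bayesian fitting of sequencing counts, and dG unfold was derived against a sequence-predicted unfolded-state K50 (Tsuboyama et al. method). Sequences shown include variable-length N-terminal GS-type padding (SAGGSAGG...) inside a display construct carrying a PA tag. Rows were kept only if the AF2 dimer inter-PAE was >15, to exclude likely homo-oligomers.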

Going from “SAGGSAGGMVTFDTPEELEALIEELLARHPRDVPVDVTIESEDSRYTIKVAPERVEEISESEGSSAGGSAGG [r6_289_JUSTAS]” to “SAGGSQEFKFEILVPFDSPEEAKEEAEEIAKILQDHGLDVKVKVERDPNGAVKVPPTIRVDPEDGRPLSAGG [r13_697_TrROS]”, the “folding stability dG unfold” value rises from -0.763 ± 0.47 kcal/mol to 0.397 ± 0.1 kcal/mol.

Going from “SPIILPGASTVTINATVTVEPRDPATGTVLSSRDLPVPVTVTTNADGTVTITVDVPADVPADAAVTVDLTSA [r9_90_JUSTAS]” to “SAGGSSIEEIKEALKKGYNIKITPTTGTSTLVPVEELIKDPNITPETSLSDLGIKEITLIPPKNGKLVSAGG [r13_587_JUSTAS]”, the “folding stability dG unfold” value falls from 0.239 ± 0.018 kcal/mol to 0.0152 ± 0.075 kcal/mol.

First: SAGGSAGGSAGKSPSESEVVITPETGVVEENGVKIKVTLTITTYSPSSTVTSTTKDPKLLSAGGSAGGSAGG [r11_551_JUSTAS]
Second: SAGGANLKIDIERHPGNGNINATIKFDGEEITVPATLSDIEEIIDEIIRVKPVPYYEKDGKLKPHWASAGGS [r8_332_TrROS]
The “folding stability dG unfold” value of the first is higher: -0.0836 ± 0.045 kcal/mol for the first, -0.781 ± 0.19 kcal/mol for the second.

Compared with “SAPVKDKNGKKREVEIHIWVPEEERKKNGTPEQIKWLARERARAAGLKPDRIKEVKIKIMPPEDMPEGFSAG [r14_446_TrROS]”, “SAGGSAGGSATIKIKVPPGEPYMIRIRWPDGKSHEHNVPPGEEITIPPDNFDGITPIEIQPYSAGGSAGGSA [r18_210_TrROS]” is higher in “folding stability dG unfold” value: -0.729 ± 0.54 kcal/mol for the first, 0.288 ± 0.19 kcal/mol for the second.

First: SDLRNMPIEELAKRIAREHGIEDVKVEVSRTGDSLTIPIEIRDPEQGMKYKVMIMVDPPDDGRIGIGVERSA [r9_1042_TrROS]
Second: SAGGSAGGSAGGMKIVLKVPENNPEAEKEAKKLKEEPGLKEVEVEFIPKSLVPEEPVLLSAGGSAGGSAGGS [r10_1110_JUSTAS]
The “folding stability dG unfold” value of the first is higher: 0.275 ± 0.29 kcal/mol for the first, -0.334 ± 0.28 kcal/mol for the second.

First: SAGGSAGGSAGMVFPVDGKEVVIDRGADDALRVTVFGPDGSASEAVFPGKDIPTVLKALSSAGGSAGGSAGG [r11_934_TrMRF]
Second: SKEILEAEVEEILKLLPESLKPDVPRELVFPGVKITVTKYEPVDKNKGGKKPTTVVTIELPEGPVTIPLPSA [r9_279_JUSTAS]
The “folding stability dG unfold” value of the first is lower: -0.23 ± 0.24 kcal/mol for the first, 0.548 ± 0.034 kcal/mol for the second.

Going from “SAGMSLKLEVPIDGHMIEVTVHPSPPRATAKYPEFDATAEATISEPGLINLTITDPKTGKPYPLDVTLPSAG [r14_656_JUSTAS]” to “SAGGSAGGSSPPVVTVEKYSEEPSPGVLRAVIRHPDGKEIVVTFEDLSPEEAKARAEEVAKLGSAGGSAGGS [r20_181_JUSTAS]”, the “folding stability dG unfold” value falls from 0.621 ± 0.023 kcal/mol to 0.00637 ± 0.068 kcal/mol.

First: SAGGSAGGSAGGMPLNFSTVETEELPELGATVTTSTAPGYILTETRTPEGVEVQRYPALLSAGGSAGGSAGG [r7_280_JUSTAS]
Second: SAGGSAMEVKIIPGSKEAIINDPENGKPIPATIIEIEPIEPDKNLFKAKVKIPSNGGWKEVLVDLGSAGGSA [r15_209_TrMRF]
The “folding stability dG unfold” value of the first is higher: 0.86 ± 0.068 kcal/mol for the first, -1.23 ± 0.39 kcal/mol for the second.

Compared with “SAGGSAGGSAGMTLEEIEELLKKEGIDPSTLGNEKIAEIIKKKNPNTTITSSPEGTGYISKSAGGSAGGSAG [r3_375_JUSTAS]”, “SAGGSAGGSMPPEELRKKILEDPNVEVLSIEPPGPEVTLITTKYPRETETPTTETVTEKLPVPLSAGGSAGG [r6_154_JUSTAS]” is lower in “folding stability dG unfold” value: 0.27 ± 0.18 kcal/mol for the first, -0.392 ± 0.33 kcal/mol for the second.

“SAGGSAGGSAGGALVVEVEVEGERRTLVVPVPDEIPPGAEEVAKKLGLKDAKVKIAPLDLSAGGSAGGSAGG [r11_219_TrMRF]” and “SAGGSAGGSAGGTIRDAVKEGKPFKIRMRGKKGKTHTVTIRPDKPVKLPGISSIQVERDSAGGSAGGSAGGS [r10_700_TrROS]” are within error of each other in “folding stability dG unfold” value: -0.662 ± 0.53 kcal/mol for the first, -0.285 ± 0.27 kcal/mol for the second.

“SAGGSAGGSAGKKVVTIDIPIDNPEELEVAEEIAREAAKELGVPPEEIPVTWEGNYLRIESAGGSAGGSAGG [r11_218_TrMRF]” and “SAGGSASLDIVEELIEEEIKDSKGTKIKILKPIIYYPGKGLVLSNVTVYKPDGTKISTEKKIEPVGSAGGSA [r15_967_JUSTAS]” are within error of each other in “folding stability dG unfold” value: -0.423 ± 0.075 kcal/mol for the first, -0.635 ± 0.25 kcal/mol for the second.

“SKTVEIPIRNPNGMQVNIMANPEKGKVMIHMGNNMPFENIKKALRELLPPGKDVDITTHPNGMAVIELKPSA [r9_933_TrROS]” and “SAGSSSTTIEVPVGDPAKAGSVEEYKEKLIKEGFSESDVPTATPLPDGTRLVTFKSPSTTVTLVVPLGESAG [r5_144_JUSTAS]” are within error of each other in “folding stability dG unfold” value: -0.277 ± 0.19 kcal/mol for the first, -0.341 ± 0.056 kcal/mol for the second.

First: SAGEELLREIAKKLNLPEGAEIVKVEIKVEEKDGRLRITITITVRNKETGELKTIEIEIEIELPEEEEESAG [r5_94_TrROS_Hall]
Second: SAGKNPGPVLILADGGEEGVKAVAYFPDGPLETEFPGSGDIAIVIPPGLTPSDVLKAAAVALKEAAESSAGG [r19_170_TrMRF]
The “folding stability dG unfold” value of the first is higher: 3.9 ± 0.27 kcal/mol for the first, 0.396 ± 0.037 kcal/mol for the second.

Going from “SAGGSEKLLEEIKEKEFNIPPFIDPKTGKEYPGAKVKVKEAKKIKDTKKIKLIVETPEGKHEFILGSAGGSA [r2_314_TrMRF]” to “SAGGSAGGSASMTITLPGMSLEEAKAAAEAHPDHPVLLETPEGRLIEITPEGVVTVRPLPESAGGSAGGSAG [r3_269_JUSTAS]”, the “folding stability dG unfold” value falls from 0.324 ± 0.22 kcal/mol to -0.147 ± 0.029 kcal/mol.

Compared with “SAGGSAGGSGNPDTPTSPVFVVIEKTTTVVPAPNGLYPKRTSVKISIPGGAAAGAEELIAELLSAGGSAGGS [r12_933_JUSTAS]”, “SAGGSAGGSAGGNEDDNVPIGEKTVVKKVPPSSPVTITETIYRRPSTGTTSTTEKVIIESAGGSAGGSAGGS [r10_6_JUSTAS]” is lower in “folding stability dG unfold” value: -0.2 ± 0.13 kcal/mol for the first, -1.12 ± 0.42 kcal/mol for the second.

Compared with “SAGGMEVVENPGGNLKIIEKEPEGPEFVKTTTTTIKTFKNPGGSTSSTITTTTTTVKISKSKNPELLSAGGS [r16_802_JUSTAS]”, “SAGGMKVEVVETPTSLQIVTTTISTEKIPFNDVTLTTVTTEVKTIPLPEKPPVGLPYFDPEGKPLLLSAGGS [r8_46_JUSTAS]” is higher in “folding stability dG unfold” value: -0.742 ± 0.26 kcal/mol for the first, -0.0171 ± 0.07 kcal/mol for the second.

Compared with “SAGGSMVTETLSVEETVEPLPDGLVRVPVRTEIRVTRKDPTTGKWTTELRTEEVVLVVPASGLEAASAGGSA [r2_184_JUSTAS]”, “SAGGSAGGSAGMKIIVKSKEEAEKIAKEIAKKLGIEKKIKKIEIIVIPYKKTKDGKIEKISAGGSAGGSAGG [r17_237_TrROS_Hall]” is lower in “folding stability dG unfold” value: 0.804 ± 0.02 kcal/mol for the first, 0.36 ± 0.19 kcal/mol for the second.

Compared with “SAGGSAGGSAGLNITYTTTITYPDGTVVTEPVVSSGSLEEAIARARELEKKHPNVEVEVSPEGSAGGSAGGS [r12_268_JUSTAS]”, “SAGMVKVSLEKNPNGTPVVTVDVNEEGGPPVTVTLPVDPNETLSKVSAVLKKEGYPLPAGKKISELLSSAGG [r19_263_JUSTAS]” is lower in “folding stability dG unfold” value: 0.396 ± 0.079 kcal/mol for the first, -0.72 ± 0.25 kcal/mol for the second.

First: SAGGSAGGMNKIKVTTSVTTFEETVLAGNKTFTVTLLKKTTTITDPNSSKVTTITETKSPEELSSAGGSAGG [r6_752_JUSTAS]
Second: SAGGSADSVMIPVESPEEIKEELQEGPPKRVELPNPDGERYWIQIDWDDPENIEVMPPDDPEKMKPSAGGSA [r15_11_TrROS]
The “folding stability dG unfold” value of the first is lower: 0.294 ± 0.27 kcal/mol for the first, 0.716 ± 0.13 kcal/mol for the second.

“SAGGSIIIRGPSPDQAEEAARAFAKNFREQFPENPNMEIPVKVEYEDPENGQRQEYEAEIKIPYPDSAGGSA [r2_393_TrROS]” and “SAGGSAGGSMVYVVKVEIPETGEEYEFLNPEDKETVEREVRELFPDPEVKAEIEEIEVEPELLSAGGSAGGS [r12_92_TrMRF]” are within error of each other in “folding stability dG unfold” value: 0.0648 ± 0.16 kcal/mol for the first, -0.175 ± 0.15 kcal/mol for the second.

Going from “SAGGMMKIKITFADGTTKEIELPEDVTEVTITYDEKTGKVTITVRLKNGETKTITIPADKITKIEIESAGGS [r16_658_TrROS_Hall]” to “SAGGSAGGSAGTTTKITEIKELPTDYVELTMKYPDGTTIKKLIPKSIYKDLPVSSTFSGGSAGGSAGGSAGG [r11_943_JUSTAS]”, the “folding stability dG unfold” value falls from 5.39 ± 0.7 kcal/mol to -0.0564 ± 0.14 kcal/mol.

Going from “SAPDNIKVDINIERNPEDGHIRVEMEIEYPDGNEVYHSAWIDPDNGKIEIDVQVPNGKQIAEETIQIKPSAG [r14_524_TrROS]” to “SAGGHRMDIQFDGSPDKIEEIQKKIHKKWPDYKVDDIEVNPGNPDQVTIRIEMDNGIPMNEIQEALMSAGGS [r16_180_TrROS]”, the “folding stability dG unfold” value falls from 0.166 ± 0.097 kcal/mol to -1.32 ± 0.22 kcal/mol.

Going from “SMRLVPVPVRSADGRASVDEIRAAIREALPEGLRVDFGEEFIERALREAERRYGGRLRPDDFPILVPVLGSA [r9_197_TrMRF]” to “SAGGSAGGKIRILEEEEDPANGERRLMVMVHNPKGKPHQYPVPLDDADEILEHLPPGMPVEIYPSAGGSAGG [r6_113_TrROS]”, the “folding stability dG unfold” value rises from -0.209 ± 0.15 kcal/mol to 0.362 ± 0.097 kcal/mol.

With “SAGGSAGGSAGMPPNTVVLRESLEPGRVVLTLAVVTPGSVASVEVTEEFPVVPGTGVVVGSAGGSAGGSAGG [r11_66_JUSTAS]” the “folding stability dG unfold” value was 0.706 ± 0.038 kcal/mol.
